Here are results for four molecules from PMC5874046, “Interaction of HuDA and PABP at 5'UTR of mouse insulin2 regulates insulin biosynthesis”.

For one series, the target named is GST-HuD B (mouse, UniProt Q61701-4 1-380). The series is described as follows: EMSA; EMSA: 6% native PAGE, 0.5x TBE, 4°C (binding buffer as in cited work); biotin pull-down: 5 mM Tris pH 7.5, 15 mM KCl, 5 mM MgCl2, 0.25 mM DTT, 10% glycerol, 20. The note with it: protein: recombinant; tags: GST; label: radiolabel (probe); m-fold predicted structure.
Chain of GST-HuD B (Q61701 other isoform, or with tags, fused parts or gaps): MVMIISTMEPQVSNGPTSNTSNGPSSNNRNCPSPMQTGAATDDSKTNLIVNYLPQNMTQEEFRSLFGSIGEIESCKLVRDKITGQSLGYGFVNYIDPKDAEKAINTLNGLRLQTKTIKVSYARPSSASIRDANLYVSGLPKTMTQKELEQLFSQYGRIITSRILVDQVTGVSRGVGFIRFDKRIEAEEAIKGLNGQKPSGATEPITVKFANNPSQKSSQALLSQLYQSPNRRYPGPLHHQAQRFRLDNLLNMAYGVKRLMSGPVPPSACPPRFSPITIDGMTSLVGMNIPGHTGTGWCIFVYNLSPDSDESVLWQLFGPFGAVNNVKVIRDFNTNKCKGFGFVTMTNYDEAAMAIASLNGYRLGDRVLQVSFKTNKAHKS
Another series concerns the target His-HuD B (mouse, UniProt Q61701-4 1-380). The series is described as above. The note with it: protein: recombinant; tags: His; label: radiolabel (probe); m-fold predicted structure.
Series [1] addresses T1, His-HuD D (mouse, UniProt Q61701-10 1-371). Described as above. The note with it: protein: recombinant; tags: His; label: radiolabel (probe); m-fold predicted structure.
For series [2], the target named is T2, His-HuD A (mouse, UniProt Q61701 1-385). The series is described as above. The note with it: protein: recombinant; tags: His; label: radiolabel (probe); m-fold predicted structure.
T2 sequence (Q61701 whole entry): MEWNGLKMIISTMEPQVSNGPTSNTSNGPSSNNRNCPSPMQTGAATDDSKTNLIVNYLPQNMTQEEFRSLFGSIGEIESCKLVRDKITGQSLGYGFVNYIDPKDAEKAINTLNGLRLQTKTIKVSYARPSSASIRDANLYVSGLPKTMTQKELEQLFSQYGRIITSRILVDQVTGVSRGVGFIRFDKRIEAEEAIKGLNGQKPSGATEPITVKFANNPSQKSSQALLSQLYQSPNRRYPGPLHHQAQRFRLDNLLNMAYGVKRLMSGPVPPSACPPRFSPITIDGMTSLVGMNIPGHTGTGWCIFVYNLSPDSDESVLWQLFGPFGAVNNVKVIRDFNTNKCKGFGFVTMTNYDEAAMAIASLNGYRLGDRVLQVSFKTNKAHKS
In series [3] the target is T2, His-HuD A. In words: competition; competitor against labeled Ins2L; EMSA: 6% native PAGE, 0.5x TBE, 4°C (binding buffer as in cited work); biotin pull-down: 5 mM Tris pH 7.5, 15 mM KCl, 5 mM MgCl2, 0.25 mM DTT, 10% glycerol, 20. As to conditions: protein: recombinant, tags: His.
Series [4] deals with T1, His-HuD D. The series is described as follows: competition; competitor; EMSA: 6% native PAGE, 0.5x TBE, 4°C (binding buffer as in cited work); biotin pull-down: 5 mM Tris pH 7.5, 15 mM KCl, 5 mM MgCl2, 0.25 mM DTT, 10% glycerol, 20. As to conditions: protein: recombinant, tags: His.
In series [5] the target is T2, His-HuD A. The series is described as follows: competition; competitor against labeled Ins2L; similar to L at low excess, differential at high excess; EMSA: 6% native PAGE, 0.5x TBE, 4°C (binding buffer as in cited work); biotin pull-down: 5 mM Tris pH 7.5, 15 mM KCl, 5 mM MgCl2, 0.25 mM DTT, 10% glycerol, 20. The note with it: protein: recombinant; tags: His; m-fold predicted structure.

Series [6] concerns the target T1, His-HuD D. The series is described as follows: competition; competitor; similar to L at low excess, differential at high excess; EMSA: 6% native PAGE, 0.5x TBE, 4°C (binding buffer as in cited work); biotin pull-down: 5 mM Tris pH 7.5, 15 mM KCl, 5 mM MgCl2, 0.25 mM DTT, 10% glycerol, 20. The note with it: protein: recombinant; tags: His; m-fold predicted structure.

T1 sequence (Q61701 other isoform, or with tags, fused parts or gaps): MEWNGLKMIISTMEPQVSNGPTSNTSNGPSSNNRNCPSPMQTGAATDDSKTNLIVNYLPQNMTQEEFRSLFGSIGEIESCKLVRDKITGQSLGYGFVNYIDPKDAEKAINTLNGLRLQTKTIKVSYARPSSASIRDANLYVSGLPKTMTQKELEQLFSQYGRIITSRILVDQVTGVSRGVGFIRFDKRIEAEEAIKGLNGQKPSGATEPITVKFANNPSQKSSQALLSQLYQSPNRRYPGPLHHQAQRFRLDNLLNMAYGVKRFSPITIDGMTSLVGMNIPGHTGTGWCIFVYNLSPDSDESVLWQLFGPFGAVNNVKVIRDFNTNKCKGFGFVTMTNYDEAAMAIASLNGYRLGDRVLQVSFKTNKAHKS

B1: Ins2L 5'UTR (L) (structured_RNA)
RNA: GGGAGCCCUAAGUGAUCCGCUACAAUCAAAAACCAUCAGCAAGCAGGAAGCCUAUCUUCCAGGUUAUUGUUUCAAC
B1: the binding result is given as “no binding” with GST-HuD B, “no binding” in the series with His-HuD B, “binds” with His-HuD D [1] and “binds” in the series with His-HuD A [2].

B2: L4 (ssRNA)
RNA: GGGUCUUCCAGGUUAUUGUUUCAAC
For the molecule B2, the binding result in the series with His-HuD A [3] and with His-HuD D [4] was “binds” throughout.

B3: Ins2S 5'UTR (S) (structured_RNA)
RNA: GGGAGCCCUAAGUGAUCCGCUACAAUCAAAAACCAUCAGCAAGCAGGAAGGUUAUUGUUUCAAC
As for B3, the binding result in the series with His-HuD A [5] and with His-HuD D [6] was “binds” in each case.

B4: L2 (ssRNA)
RNA: GGGUACAAUCAAAAACCAUCAGCAA
Take B4: the binding result with His-HuD A [3] (label: radiolabel (probe)) and with His-HuD D [4] (label: radiolabel (probe)) was “binds” in each case.
